For orientation: Kd means a measure of binding affinity in units of concentration. The koff is the rate constant with which the complex falls apart. Broadly, the kon is the second-order rate constant of association.

*1 amine or outer side, *2 acyl side, *3 side chain or, on linkers, in order; H or OH if unused. Where no end group is shown, it is not given here. [ ]: non-standard residue; d: D form. The star is where a group is joined. 1‑pHis = 1-phosphohistidine, O=C([C@H](Cc1cncn1P(=O)(O)O[*:3])N[*:1])[*:2]; Biotin = O=C1N[C@H]2[C@H](CS[C@H]2CCCCC(=O)*)N1

The results in this text go back to article PMC8017925, “Structural basis for differential recognition of phosphohistidine-containing peptides by 1-pHis and 3-pHis monoclonal antibodies” (Proceedings of the National Academy of Sciences of the …, 2021).

Data set [1] is described as follows: Stability of 1- and 3-pHis peptides with and without pHis mAbs (BLI read-out). The format is physicochemical. To be noted: phosphorylated ACLYana, 0-24 h, no pHis mAbs; read-out BLI signal at end of association, normalized to 0 h. As to the method:
Next, we examined the ability of these Fabs to recognize phosphorylated substrates using differential scanning fluorimetry (DSF).
Fig. S6. Stability of 1- and 3-pHis peptides in the presence of pHis mAbs. In the BLI experiment, analytes were SC50-3 (A and B) and SC44-8 (C and D) Fabs and ligand was the ACLYana peptide.
Prior to the experiment, the peptide was phosphorylated with phosphoramidate and divided into two sets - set A and set B. The set A peptide was incubated with 1- and 3-pHis mAbs separately for extended periods of time (0 - 24 h) and set B was not incubated with pHis mAbs. The ACLYana-pHis peptide incubated with the mixture of 1-pHis IgGs (A, continuous lines) and 3-pHis IgGs (C, continuous lines) has the higher signal intensity at all time points compared to […]
(discontinuous lines). The BLI signal intensity at the end of association phase was used to compare the rate of hydrolysis with (set A) and without incubation with pHis mAbs (set B). The signal intensities were normalized to the 0 h (B and D). The unphosphorylated peptide was used as a […]
the rate of dephosphorylation. In the absence of pHis mAb incubation, 1-pHis peptide hydrolyzed […]
(1 picture or pasted object on this page, not shown here)

Data set [2] concerns the target T1, ACLY peptide, 3-pHis form.
T1 sequence (peptide, biotin on the N-terminus; C-terminal amide; 3-phosphohistidine at position 5): VQFGHAGAC
The data set is described as follows: BLI; biotinylated pHis peptides (20 nM) on streptavidin biosensors, Fab in solution at varying concentrations; 50 mM Hepes pH 8.0, 150 mM NaCl, 0.05% Tween-20, 0.2% BSA; Octet RED96e; global fit to a 1:1 Langmuir model. Background: Biolayer interferometry detects binding as a change in optical thickness at a sensor tip.

Substrate in data set [3]: SCS peptide, phosphorylated, 3-pHis form
The data set is described as follows: BLI; N-terminally biotinylated peptides (20 nM) on streptavidin biosensors, varying concentrations of Fab in solution; 50 mM Hepes pH 8.0, 150 mM NaCl, 0.05% Tween-20, 0.2% BSA; association 120 s, dissociation 200 s; global fit to a 1:1 Langmuir model; Octet RED96e; in triplicate.

For data set [4], the target named is ACLY peptide, phosphorylated, 3-pHis form. The data set is described as above.
In data set [5] the target is ACLYana-3-pTza peptide (AGAG-3-pTza-AGAG). The data set is described as above.
For data set [6], the target named is T2, ACLYana-3-pHis peptide (AGAG-3-pHis-AGAG).
T2 sequence (peptide, 3-phosphohistidine at position 5; biotin on the N-terminus): AGAGHAGAG
The description is as above.

Substrate in data set [7]: SCS peptide, 3-pHis form
The data set is described as follows: BLI; biotinylated pHis peptides (20 nM) on streptavidin biosensors, Fab in solution at varying concentrations; 50 mM Hepes pH 8.0, 150 mM NaCl, 0.05% Tween-20, 0.2% BSA; Octet RED96e; global fit to a 1:1 Langmuir model.

Consider “1-pHis peptide: 1-pHis isomer of phosphorylated ACLYana peptide (Biotin-AGAG[1‑pHis]AGAG)”, for which, in data set [1], the “hydrolysis of pHis peptide in the absence of pHis mAb incubation” value is reported as “faster than 3-pHis peptide”.

B1: SC44-8 Fab (Fab, V domains shown)
VH: QSVKESGRGLVQPGGSLTLTCTASGFSIDSYGFSWVRQAPGKGLEHIGYLTAGGRAFYASWAKSRSTITRNTNENTVTLKMTSLTAADTATYFCAKLGSGNPVAIWGPGTLVTVSS
VL: QVLTQTPSFTSAAVGGTVTINCQSSQSVWRNKNLAWYQQKPGQPPKRLIYAIATLDSGVPSRFSGSGSGTQFTLTISDVQCDDAATYYCVGHYGSENDAYYAFGGGTEVVVK
For the molecule B1, the Kd was found to be 348 nM in data set [2], 0.235 nM in data set [5], 18.2 nM in data set [6] and 467 nM in data set [7]. Besides, the koff in data set [2] was 0.00972 s⁻¹; in data set [5], 3.66e-05 s⁻¹; in data set [6] it was 0.0017 s⁻¹; in data set [7], 0.0137 s⁻¹. Further, the on-rate constant (kon) came out at 28000 M⁻¹ s⁻¹ in data set [2], 156000 M⁻¹ s⁻¹ in data set [5], 93600 M⁻¹ s⁻¹ in data set [6] and 29300 M⁻¹ s⁻¹ in data set [7]. Further, the BLI signal intensity for the association in data set [3] was found to be 0.5 nm; in data set [4] it was 0.5 nm; in data set [6], 2 nm.
